Assay: label from the status in PepcDB records
In the case of “MVAKDYPFYLTVKRANCSLEAPLGSGVAKDEEPSNKRVKPLSRVTSLANLIPPVKTTPLKRFSQTLQRSISFRSESRPDILAPRAWSRNATSSSTKRRDSKLWSETFDVCVNQVLTAKEIKRQEAIFELSQGEEDLIEDLKLAKKAYHDPMLKLSIMTEQELNQIFGTLDSLIPLHEELLSQLRDVRKPDGSTEHVGPILVGWLPCLSSYDSYCSNQVAAKALLDHKKQDHRVQDFLQRCLESPFSRKLDLWNFLDIPRSRLVKYPLLLREILRHTPNDNPDQQHLEEAINIIQGIVAEINTKTGESECRYYKERLLYLEEGQKDSLIDSSRVLCCHGELKNNRGVKLHVFLFQEVLVITRAVTHNEQLCYQLYRQPIPVKDLTLEDLQDGEVRLGGSLRGAFSNNERVKNFFRVSFKNGSQSQTHSLQANDTFNKQQWLNCIRQAKETVLSAAGQAGLLDSEGLVQGPGTENREPQGETKLEQMDQSDSESDCSMDTSEVSLECERMEQTDASCANSRPEESV”, the protein production is reported as “not failed”.
In the case of “MVAPLEIKNSNAFCFFPVSFASSRFPWLLKTLVMILGLATVVFMFRSLALTAEFGTFKPAFPKPGPVDPVLKLLSEEHLRTLFTYSDIWLFPKNQCDCESGKQQMKYKYQNAYNQKDLPAVNARRQAEFEHFQRREGLPRPPPLLASPNLPFGYPVHGVEVMPLHTILIPGLQYEGPDAPVYEVTLKASLGTLNTLADVSDNEVQGRGQRQLSISTRHRKVLNFILQHVTYTSTVYHLHKVDIVSMESKSSVAKFPVTIKHQTVPKLYDPGPERKLRNLVTIATKTFLRPHKFKILLQSIRKYYPDLTVIVTDDSKEPLEIKDDYVEYYPMPFGKGWFAGRNLAISQVTTKYVLWVDDDFLFSNKTKIEVLVDVLEKTELDVVGGSVQGNTFQFRLLLERSENGDCLHQRWGSFQALDGFPGCTLASGVTNFFLAHTEQLRRVGFDPALQRVAHREFFIDGLGSLLVGSCPGVTVDHQTRTPSKDPKLAALEMSYAKYRTNTNSQVQFKLALHYFKNHLYCAT”, the protein production is reported as “failed”.
In the case of “MVDAASTGLFLDAAGMKALGAAIAIAVTGLASAIAEKDIGTAAIGAMAENEGLFGKGLILTVIPETIVIFGLVVALLINQ”, the protein production is reported as “failed”.
For “MVDIHSHIIPGIDDGSNSLETTLKMMEIANEAGLTKMVATSHYFRGRFENSISAITSEAEKLNSIFKKKAVDIEVIPGQEVFIDNHTLEAHKNGIIGCIRDTNYMLVEFDMMSLLENAADILYEIQIRGIKPIIAHPERYTYIQRDLYKINDLIDENIYFQVNAGSIEGLFGKTVQKTAIKLIEEGLVSFIASDAHSAGKRCPGYEGALKLVAKIDSVLPGKFVKNADLLIENQEIKARSQKLKRKKGFFTFFK”, the protein production was “failed”.
For “MVDLVAKLKRGAPMLALLIVSTVLAGCSSSTAIKGSKDEGLRLARLLRDQGRVEAATEVYARLDSRDALKGAEMLEYASVAALARSPQQTLELYGRARQALGGDTNKMTPGEALAVCLGMGRTQLALGRNAMAQTDFACALKAQPNDAGALNGMGVVMDASGKHAEARQLFEKALQVNPADVAALNNLALSWLASGNTDKAISLLRSVDESNATSRLNLALAYLSGGRDDEARSALATIAQPQRIDGLMDELNQRLQQMQKDKSRGEALLLSSRQRLQLSAPE”, the protein production was “failed”.
In the case of “MVDYHYFKSKLNHFYGRYVGYNQRPVFFDIDQTFPELNHITRHFPDIKREFENVQANVKEFPRYHDIDPGESAISNTTEKNWNVFMLYLLGYQLKEARLLCPELCNLLEGIPHLIQAFFSILEPGKSIPLHEGPYIGYLRYHLGIHVPQNNPPQILVNNQTYTWKEGEAVLFDDSWPHEVRNTSDDYRAVLIIDVLRPMPFLPQLVNQFVTHVIARYFYGRKVMKRAMQYGGEVKPLALLEHHHHHH”, the protein production is reported as “failed”.
With “MVETGHHHQHPPAPAAAGHPPVPSMAMARNMGTTWPPAEQLHHLQYCIHSNPSWHETVVLAFQHYIVMLGTTVLIANTLVSPMGGDPGDKARVIQTILFMSGINTLLQTLIGTRLPTVMGVSFAYVLPVLSIIRDYNNGQFDSEKQRFRHTMRTVQGSLIISSFVNIIIGYGQAWGNLIRIFSPIIVVPVVSVVSLGLFLRGFPLLANCVEIGLPMLILLIITQQYLKHAFSRISMILERYALLVCLAIIWAFAAILTVSGAYNNVSTATKQSCRTDRAFLMSSAPWIRIPYPFQWGTPIFKASHVFGMFGAAIVASAESTGVFFAASRLAGATAPPAHVVSRSIGLQGIGVLLEGIFGSITGNTASVENVGLLGLTRIGSRRVVQVSTFFMIFFSIFGKFGAFFASIPLPIFAGVYCILLGIVVAVGISFIQFTDTNSMRNMYVIGVSLFLSLSIAQYFLANTSRAGYGPVRTAGGWFNDILNTIFASAPLVATILATILDNTLEARHASDDARGIPWWKPFQHRNGDGRNDEFYSMPLRINELMPTRFL” the protein production was “failed”.
In the case of “MVETLGAIAPVFLIILVGFLLRRWKVLSDGFWLPAEKLTYFITFPALLAANLAGADLRGVAWAPVAAVSVGGIFLIAALMLAARSLLARRLAIGDPAFTSVFQGAIRPNTYIGLALATVLFGPFGVTLMALCIAIVVPLVNVLAVACMVRFGHGQSASLSAMARGIATNPLILACLVGIAMNIGGLGLPPVLGPALTILGSAALPIGLLAVGAGLSGVGLRRAAPALLVSSAAKLVLLPGLTLIGALALGMDAPTTALCVLYAALPCSQSSYVLARQMGGDATLMATAITVQTLLSGLSIPVFVLALV”, the protein production is reported as “failed”.
With “MVEVTIWLAFFAGVVSFLSPCVFPLVPVYLAQLTGTQISGNEITADRKLILMRSLGFILGFTSIFIFLGASSTFIGQLFWGNRQLFEQIGGIIITVFGLQMMGVISIRMLLSEKRLQAKPRQSASFANSVLIGFLFATGWTPCIGLVLGAILVLAGDANTMWSGMSMLFVYSMGLAIPFFLVALLWSRSLHKVRKLNKWLPTIQKGSGVVMVALGVLLFTGQFSTIAAYLARINPFGI” the protein production was “failed”.
With “MVFGPGLCIAHRGTIVVNKGARVGENCRIHACTNIGSGRDNIFLAPKIGNGVYIGPGAKIFGSVEIADNIAIGANSVVNRSFYERGISIAGVPAKKISNKGSDGMVIAATKTVSVPVSQETILEHHHHHH” the protein production was “failed”.
With “MVFLIVPILTILGLSIHEAIGTSLACIAISSFSSAYTHLKKGKVHIKVVILKELFSIPAAVLGAYLTNDINEKILRVAFSMLLFYLAVRLTVKRRAKDSKEAKIHYERVPLVGVASGFLSGLLGISGGILNVPLFTIFVGIPIKYSIGTSSLALFFTALAGAITHLKEGNVVLSIALALAPGLIVGAYVGAIVSHRIHSDKLRVLFSALLLIIGVRMLV” the protein production was “failed”.
In the case of “MVFSMHDKGETQENPADMSGRLNTPISTVFHFFSSLFHDALRSVAQWSAWKKIAVSVVIVAIISVTFLVDVPPISVYRDWANNAGDAFVLVFCAFYILITQFPIPRTVLTLASGVLFGPVLGSVVALGSTTVSAVISLLIVRGLLGDWMAPRLTHPAVSRINTRLEQRGWLAITSLRMIAAIPFSILNYVAALTSVPVFSFAIATLIGSAPGTIVTVVLGDAVTGSGNWTAVAFTVFLAILGVLGIFLDQKMPVKPGK”, the protein production is reported as “failed”.
For “MVFSNSLLSSTTSLTTWANQSSSQSSLSPRYSTWQCVCLRNQKRKPKLYLIPARHFLSTPIDSVSSSSITASRYATSGVSEVQRSTSSNNVTEMEEFEMELQELFNEVKSMVKIGKESDAMDLLRANYVAVKEELDSGLKGIEQAAVLDIIALGYMAVGDLKPVPALLDMINKIVDNLKDSEPLLDSVLMHVGSMYSVIGKFENAILVHQRAIRILENRYGKCNTLLVTPLLGMAKSFASDGKATKAIGVYERTLTILERNRGSESEDLVVPLFSLGKLLLKEGKAAEAEIPFTSIVNIYKKIYGERDGRVGMAMCSLANAKCSKGDANEAVDIYRNALRIIKDSNYMTIDNSILENMRIDLAELLHFVGRGDEGRELLEECLLINERFKGKNHPSMATHLINLAASYSRSKNYVEAERLLRTCLNIMEVSVGSEGQSITFPMLNLAVTLSQLNRDEEAEQIALKVLRIREKAFGEDSLPVGEALDCLVSIQARLGRDDGEILGLLKRVMMIQEKEFGPSAQELIVTLQKIIHFLEKLEMKDDKFKFRRRLALLRERYKQSLSY”, the protein production was “failed”.
In the case of “MVGINTDTENISELLKTYWSIQRISAGYADQNAASLGLTIQQLAMINVIYSTPGISVADLTKRLIITGSSAAANVDGLISLGLVVKLNKTIPNDSMDLTLKLSKKGEDLSKRSTANAFMYKAMMKVFENLTENEIEELIRLNKKVETLLKKSK”, the protein production is reported as “not failed”.
In the case of “MVGLADVAVLYSGGKDSNYALYWALKSGLRVRYLVSMVSENEESYMYHTPNVELTSLQARALGIPIIKGFTKGEKEKEVEDLKNVLEGLKVDGIVAGALASRYQKERIENVARELGLKVYTPAWEKDPYQYMLEIIKLGFKVVFVAVSAYGLNESWLGRELNYKNLEELKKLSEKYGIHIAGEGGEFETFVLDMPFFKAKIVIDDAEKFWDGLSGKFIIKRAHLEWK”, the protein production is reported as “not failed”.
In the case of “MVGQREPAPVEEVKPAPEQPAEPQQPVPTVPSVPTIPQQPGPIEHEDQTAPPAPHIRHYDWNGAMQPMVSKMLGADGVTAGSVLLVDSVNNRTNGSLNAAEATETLRNALANNGKFTLVSAQQLSMAKQQLGLSPQDSLGTRSKAIGIARNVGAHYVLYSSASGNVNAPTLQMQLMLVQTGEIIWSGKGAVSQQLEHHHHHH”, the protein production is reported as “not failed”.
In the case of “MVHCADQGMARAARDLAGALIASSAVLYNQFDAWSRSHAAALEAVRRGGDTEGEAWLLTGLGQLRYEQDKFEESYAYFADALRLFDERGDVPRGAALSLAGMGSARREQARFAEALQLLSSALERYEQTDDVGARARVLYGIGYVHREQGRGAQAWEALSGALGLYRTASDRHGEALTLRSLALCRRADGAWADAERLLHEALRIFVGLQDTFGVMYTEQSLAKVELRRGHLEKARERLGRCLEVARERQDRFGEALVLRTLGEWCLAAGETERAREPLERALAAWEALDLPLWGARTAWDLAEVSASRATNRRRGQPARRRWRPSARWTAGRRGSARTKACRTR”, the protein production is reported as “failed”.
With “MVHDSALPFDALPMPPQGREGFEECPYLDSQWVADTNGQRMTGQGVDTRFDTPACVFWSYPEAPQATVMVRHMPSEEEAIRVVDWAAPIDTTEPAEEPDGWSGGRAGHEEGAVYAVQKGPVAVVVWSNQQQSLKAELMAKEAIARLGL” the protein production was “not failed”.
In the case of “MVHDTFMKMPEVRRRRQPTHVLVAGGNQGLGNMTAFLRAARTSTLFRYSVLCGANKQLYHEIASWQLPHIRPLPYINSPEEMNQLYDEADAVITKPGGVTISELLHKRIPIFTIDCLPGQERINWQYLRRNGLIYHLAEPGNGERKMIRLLTDDVEKNRFFRRVSDYFAGVEKTGLEHHHHHH”, the protein production is reported as “failed”.
With “MVILEQTHLVKNKAVDNKKSMKYSIFQQALTIAVILLISKIIESFMPIPMPASVIGLVLLFIALCTGIVKLGQVETVGTALTNNIGFLFVPAGISVINSLPILKQSPILIILLIIISTLLLLICTGFSSQLLVTKSLFPSKEKNEETSHIGG” the protein production was “failed”.
In the case of “MVINSTVWQCEATGKENLTYEEAVKSERAARKKMEQFKQSLRAPVLLVVEHAQQSAVNTLNMIVAKFLRKRYFIGEEVSVQAKKNATYTVLGVKLDKNMPEPLNGIYEDTDNLVYRLRPNKGDPSAELDLPFRQLRRSRMEFNLENLSMFIKSNVSRVDGLLRPKPEA”, the protein production is reported as “failed”.
With “MVKDKQKAIFSENLNSYIAKSEKTQLEIAKSIGVSPQTFNTWCKGIAIPRMGKVQALADYFNINKSDLIEDKKLNIDTVPIESGYTIPVLGRVAAGYGKEAVEEVIGQIEISPSMAAKGDYFGLLIKGDSMIPTLYDGDTVIVERTDDAESGDLVIALVNGSDATCKRLQKYAEGIALIPQNPVYEPMRFTESEIDTTPVKILGKVVEMRRKFLEHHHHHH” the protein production was “not failed”.
In the case of “MVKLELLKQSDASALLKFELNNKEWFESFIEARDDDFFDDNGIKEHVNFCLAEYKKGLLYPTLIKDEDGQILGRANLYNIDRVKNSGSIGYRIGEEFTSQGLATLATKELLEIGKNRYELSSINAVASTDNAASQKVLIKNGFKEVGFKPEFAFVDGEIIDCYEYRCLIQQLTPVM”, the protein production is reported as “failed”.
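Further: failed if final PepcDB status was selected cloned or expressed and not failed if soluble or beyond.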
